In patent publication US20130129722A1:
Substitutions are numbered along the chain they refer to. Blank lines part the entries; values can stand above or below the molecule they belong to.

Experiments:
[1] = target: Monkey Ang-2FD-hFc (monkey (Macca fascicularis)); assay: ELISA; 16.67 nM antibody premixed with Ang-2FD-hFc, binding to coated hTie-2-mFc
[2] = target: Mouse Ang-2FD-hFc (mouse (Mus musculus)); assay: as above
[3] = target: Human Ang-2FD-hFc (human); assay: as above
[4] = target: Dimeric Monkey Ang-2FD conjugated to human IgG1 (monkey (Macca fascicularis)); assay: SPR, human IgG1 antibody captured
Dimeric Monkey Ang-2FD conjugated to human IgG1 (monkey (Macca fascicularis)), sequence (chain, as listed by the source limits assumed): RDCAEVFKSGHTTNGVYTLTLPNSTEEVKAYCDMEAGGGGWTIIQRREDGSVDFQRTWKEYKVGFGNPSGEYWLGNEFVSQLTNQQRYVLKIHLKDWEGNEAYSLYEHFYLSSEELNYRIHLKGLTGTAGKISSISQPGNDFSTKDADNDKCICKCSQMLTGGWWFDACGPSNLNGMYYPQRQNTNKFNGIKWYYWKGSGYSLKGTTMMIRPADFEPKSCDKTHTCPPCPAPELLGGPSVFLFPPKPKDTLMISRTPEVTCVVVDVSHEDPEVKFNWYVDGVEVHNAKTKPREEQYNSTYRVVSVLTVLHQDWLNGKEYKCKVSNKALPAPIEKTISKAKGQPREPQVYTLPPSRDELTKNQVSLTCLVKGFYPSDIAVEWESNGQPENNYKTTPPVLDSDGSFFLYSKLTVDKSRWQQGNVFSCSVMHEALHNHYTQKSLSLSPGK

[5] = target: Dimeric Human Ang-2FD conjugated to human IgG1 (human); assay: SPR, human IgG1 antibody captured
Dimeric Human Ang-2FD conjugated to human IgG1 (human), sequence (chain, as listed by the source limits assumed): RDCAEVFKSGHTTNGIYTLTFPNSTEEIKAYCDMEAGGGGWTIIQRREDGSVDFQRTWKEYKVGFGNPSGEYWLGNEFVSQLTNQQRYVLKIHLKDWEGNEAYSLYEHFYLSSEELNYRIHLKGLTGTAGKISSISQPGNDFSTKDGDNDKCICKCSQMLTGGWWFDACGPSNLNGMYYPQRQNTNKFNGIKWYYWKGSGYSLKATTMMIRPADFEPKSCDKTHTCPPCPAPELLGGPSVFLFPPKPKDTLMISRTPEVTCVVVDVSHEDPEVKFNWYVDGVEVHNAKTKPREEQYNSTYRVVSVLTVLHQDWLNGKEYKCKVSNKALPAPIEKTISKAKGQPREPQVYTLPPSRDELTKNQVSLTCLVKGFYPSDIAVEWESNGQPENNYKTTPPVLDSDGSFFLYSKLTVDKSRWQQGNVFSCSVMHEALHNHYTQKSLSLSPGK

[6] = target: Dimeric Mouse Ang-2FD conjugated to human IgG1 (mouse (Mus musculus)); assay: SPR, human IgG1 antibody captured
Dimeric Mouse Ang-2FD conjugated to human IgG1 (mouse (Mus musculus)), sequence (chain, as listed by the source limits assumed): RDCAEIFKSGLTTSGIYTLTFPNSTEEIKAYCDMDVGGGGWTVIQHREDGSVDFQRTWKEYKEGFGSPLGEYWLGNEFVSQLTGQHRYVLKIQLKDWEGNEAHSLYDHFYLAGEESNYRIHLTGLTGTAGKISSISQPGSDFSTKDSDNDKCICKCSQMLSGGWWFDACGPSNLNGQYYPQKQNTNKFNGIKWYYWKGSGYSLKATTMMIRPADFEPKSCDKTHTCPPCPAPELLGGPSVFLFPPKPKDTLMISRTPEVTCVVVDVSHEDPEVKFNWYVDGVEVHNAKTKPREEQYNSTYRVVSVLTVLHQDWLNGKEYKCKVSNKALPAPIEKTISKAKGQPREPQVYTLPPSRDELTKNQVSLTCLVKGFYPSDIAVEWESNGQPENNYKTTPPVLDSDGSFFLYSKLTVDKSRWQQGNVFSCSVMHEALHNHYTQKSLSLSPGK

[7] = target: Dimeric Monkey Ang-2FD conjugated to human IgG1 (monkey (Macca fascicularis)); assay: SPR, antibody captured, room temperature
[8] = target: Dimeric Human Ang-2FD conjugated to human IgG1 (human); assay: SPR, antibody captured, room temperature
[9] = target: Dimeric Monkey Ang-2FD conjugated to human IgG1 (monkey (Macca fascicularis)); assay: ELISA, 16.67 nM antibody, Ang-2FD-hFc binding to coated hTie-2-mFc
[10] = target: Dimeric Human Ang-2FD conjugated to human IgG1 (human); assay: as above
[11] = target: Dimeric Mouse Ang-2FD conjugated to human IgG1 (mouse (Mus musculus)); assay: as above
[12] = target: Dimeric Mouse Ang-2FD conjugated to human IgG1 (mouse (Mus musculus)); assay: SPR, antibody captured, room temperature

Percent Blocking of Ang-2FD Binding to Tie-2 [1]: 98.5%
Percent Blocking of Ang-2FD Binding to Tie-2 [2]: 82.2%
Percent Blocking of Ang-2FD Binding to Tie-2 [3]: 97.3%
Molecule: Control I (Ab) (antibody)

Kd [7]: 1.47 nM
T1/2 [7]: 23 min
Kd [8]: 0.362 nM
T1/2 [8]: 32.2 min
Percent Blocking of Ang-2FD Binding to Tie-2 [9]: 97.4%
Percent Blocking of Ang-2FD Binding to Tie-2 [10]: 99.4%
Percent Blocking of Ang-2FD Binding to Tie-2 [11]: 53.7%
B2: H2M750N (antibody, V domains shown)
VH: QVKLVESGGGVVQPGRSLRVSCAASGFTFSSYGMHWVRQAPGKGLEWLAIIWYDGDNKYYSDSVKGRFTISRDNSKNTLYLQMNSLRAEDTAEYYCVRDASIASRFLDYWGQGTLVTVSS
VL: DIQMTQSPSSLSASIGDRVTITCRATQDINNYLAWFQQKPGKAPKSLIYATSNLQSGVPSKFSGSGSGTDYTLTISSLQPEDFSTYYCQQYHSYPLTFGGGTKVEIK

Kd [7]: 0.73 nM
T1/2 [7]: 25.7 min
Kd [8]: 0.179 nM
T1/2 [8]: 42.7 min
Kd [12]: 0.694 nM
T1/2 [12]: 16 min
Percent Blocking of Ang-2FD Binding to Tie-2 [9]: 95.2%
Percent Blocking of Ang-2FD Binding to Tie-2 [10]: 99.5%
Percent Blocking of Ang-2FD Binding to Tie-2 [11]: 96.6%
B3: H1M724N (antibody, V domains shown)
VH: QVQLVESGGGVVQPGRSLRLSCAASGFTLSNYGMHWVRQAPGKGLEWVAVIWHDGSNTYYADSVKGRFTISRDNSKNTLYLQMNSLRAEDTAVYYCTREGLDFWSGYYPNWFDPWGQGTLVTVSS
VL: DIQMTQSPSSLSASVGDRVTITCRASQGIRNDLGWYQQKPGKAPKRLIYAASNLQGGVPSRFSGSGSGTEFTLTISSLQPEDFAAYYCLQHNIYPLTFGGGTKVEIK

Kd [7]: 7.33 nM
T1/2 [7]: 24.1 min
Kd [8]: 0.484 nM
T1/2 [8]: 35.5 min
Kd [12]: 1.7 nM
T1/2 [12]: 21.4 min
Percent Blocking of Ang-2FD Binding to Tie-2 [9]: 95.8%
Percent Blocking of Ang-2FD Binding to Tie-2 [10]: 97.7%
Percent Blocking of Ang-2FD Binding to Tie-2 [11]: 90.9%
B4: H1M732N (antibody, V domains shown)
VH: EVQLVESGGGLVRPGGSLRLSCAASGFTFTNAWMSWVRQAPGKGLEWIGQIKSKTDGGTIDYAAPVKGRFTVSRDDSENTLFLQMNSLKTEDTAVYYCAGNWNYVDFDYWGQGTLVTVSS
VL: B3 VL with G28D, N53S, A85T, I93S, L96F, G100P, E105D

Kd [7]: 1.58 nM
T1/2 [7]: 69.5 min
Kd [8]: 0.137 nM
T1/2 [8]: 58.4 min
Kd [12]: 5.65 nM
T1/2 [12]: 9.9 min
Percent Blocking of Ang-2FD Binding to Tie-2 [9]: 97.1%
Percent Blocking of Ang-2FD Binding to Tie-2 [10]: 98.5%
Percent Blocking of Ang-2FD Binding to Tie-2 [11]: 83.9%
B6: H1M728N (antibody, V domains shown)
VH: EVQLVESGGDLVQPGGSLRLSCTASGFTFSKYWMTWVRQAPGRGLEWVANIKEDGNEKYFLDSVKGRFTISRDNAKDLLFLQMNSLRGEDTAVYYCVRDRGIEVAGPFDYWGQGTLVTVSS
VL: DIQMTQSPSTLSASVGDRVTVTCRASQTIINWLAWYQQKPGKAPKLLISKASSLESGVPSRFSGSGSGTEFTLTISSLQPDDFATYYCQQYNRYWTFGQGTMVEIK

Kd [7]: 0.842 nM
T1/2 [7]: 36.6 min
Kd [8]: 0.21 nM
T1/2 [8]: 47 min
Percent Blocking of Ang-2FD Binding to Tie-2 [9]: 97.3%
Percent Blocking of Ang-2FD Binding to Tie-2 [10]: 98.9%
Percent Blocking of Ang-2FD Binding to Tie-2 [11]: 55%
B7: H2M730N (antibody, V domains shown)
VH: EVQLVESGGGLVQPGGSLRLSCAASGFAFRSYWMTWVRQAPGKGLEWVANIQQDGNDKYYVDSVKGRFTISRDNAKNSLYLQMNSLRAEDTAVYYCARDTGIAEAGPFDYWGQGTLVTVSS
VL: B6 VL with T20S, V21I, N31S, K45R, S49Y, S76N, M102K

Kd [7]: 6.17 nM
T1/2 [7]: 28.5 min
Kd [8]: 0.295 nM
T1/2 [8]: 38 min
Kd [12]: 0.61 nM
T1/2 [12]: 30.8 min
Percent Blocking of Ang-2FD Binding to Tie-2 [9]: 94.1%
Percent Blocking of Ang-2FD Binding to Tie-2 [10]: 99.6%
Percent Blocking of Ang-2FD Binding to Tie-2 [11]: 98.6%
B11: H2M742N (antibody, V domains shown)
VH: DVQLLESGGDLVQPGGSLRLSCEASGFTFRNYVMIWVRQAPGKGLEWVSGISNSGGTTHYTDSVKGRFTISRDNSKNTLYLQINSLRAEDTAVYYCAKGYLDTSLIEGNWFDPWGQGTLVTVSS
VL: NIVMTQSPLSLPVTPGEPASISCRSSQSLLHSNGFNYLNWFLQKPGQSPQLLIYLGSNRASGVPDKFSGSGSGTDFTLNINRVEAEDVGIYFCMQTLQTPLTFGGGTKVEIK

Kd [7]: 0.234 nM
T1/2 [7]: 169 min
Kd [8]: 0.154 nM
T1/2 [8]: 167 min
Kd [12]: 0.882 nM
T1/2 [12]: 195 min
Percent Blocking of Ang-2FD Binding to Tie-2 [9]: 95.1%
Percent Blocking of Ang-2FD Binding to Tie-2 [10]: 99.6%
Percent Blocking of Ang-2FD Binding to Tie-2 [11]: 98.4%
B13: H2M743N (antibody, V domains shown)
VH: EVQLLESGGGLVQPGGSLRLSCAASGFTFRKYAMSWVRQAPGKGLEWVSVISVSGGNTYYADSVKGRFTISRDNSKNTLYLQLNSLRAEDTAVYYCAKDLTDIVLMVYVDYWGQGTLVTVSS
VL: DIQMTQSPSSVSASVGDRVTITCRASQDIDRWLAWYQQKPGKAPKLLIYAASSLQSGVPSRFSGSGSGTDFTLTISTLQPEDFATYYCQQANSLPFTFGGGTKVEIK

The next lines start with the molecule.

B1: H1H750N (antibody, V domains shown)
VH: B2 VH
VL: B2 VL
Kd [4]: 0.199 nM
T1/2 [4]: 244 min
Kd [5]: 0.164 nM
T1/2 [5]: 127 min
Kd [6]: 0.218 nM
T1/2 [6]: 121 min

B5: H1H732N (antibody, V domains shown)
VH: B4 VH
VL: B3 VL with G28D, N53S, A85T, I93S, L96F, G100P, E105D
Kd [4]: 0.439 nM
T1/2 [4]: 118 min
Kd [5]: 0.386 nM
T1/2 [5]: 57 min
Kd [6]: 0.529 nM
T1/2 [6]: 51 min

B8: H1H728N (antibody, V domains shown)
VH: B6 VH
VL: B6 VL
Kd [4]: 2 nM
T1/2 [4]: 77 min
Kd [5]: 0.162 nM
T1/2 [5]: 81 min
Kd [6]: 5.76 nM
T1/2 [6]: 20 min

B9: H1H730N (antibody, V domains shown)
VH: B7 VH
VL: B6 VL with T20S, V21I, N31S, K45R, S49Y, S76N, M102K
Kd [4]: 3.4 nM
T1/2 [4]: 87 min
Kd [5]: 0.234 nM
T1/2 [5]: 62 min
Kd [6]: 0.0971 nM
T1/2 [6]: 90 min

B10: H1H742N (antibody, V domains shown)
VH: B11 VH
VL: B11 VL
Kd [4]: 0.683 nM
T1/2 [4]: 93 min
Kd [5]: 0.186 nM
T1/2 [5]: 65 min
Kd [6]: 0.276 nM
T1/2 [6]: 58 min

B12: H1H743N (antibody, V domains shown)
VH: B13 VH
VL: B13 VL
Kd [4]: 0.0965 nM
T1/2 [4]: 780 min
Kd [5]: 0.0882 nM
T1/2 [5]: 254 min
Kd [6]: 0.124 nM
T1/2 [6]: 233 min

B14: H1H693P (antibody, human IgG1, V domains shown)
VH: EVQLVESGGGLVQPGESLRLSCAASGFTFSSYAMSWVRQGPGKGLEWVSSISGSGGTTYYADSVEGRFTISRDNSKNTLYLHMNSLRAEDTAVYYCAKDFLDYSTYLAFDLWGQGTMVTVSS
VL: B13 VL with D28G, D30S, R31S, T77S, L94F, F96R, G100Q
Percent Blocking of Ang-2FD Binding to Tie-2 [2]: 63.6%
Percent Blocking of Ang-2FD Binding to Tie-2 [3]: 73.9%
Kd [4]: 1.17 nM
T1/2 [4]: 17.6 min
Kd [5]: 0.5 nM
T1/2 [5]: 37.1 min
Kd [6]: 0.446 nM
T1/2 [6]: 63.7 min
